Holding throughout (assay): EMSA
Holding throughout (conditions): EMSA: 25 mM Tris-HCl pH 8.0, 50 mM KCl, 2.5 mM MgCl2, 5% glycerol, 1 mM DTT, 100 ug/mL salmon sperm DNA, 100 ng Cy5 probe in 20 ul, 25 C 20 min; native PAGE at …
For orientation: In EMSA bound probe runs differently from free probe, usually more slowly.

In data set [1] the target is T1, DgoR (EcoDgoR) WT (Escherichia coli) (UniProt P31460).
T1 sequence: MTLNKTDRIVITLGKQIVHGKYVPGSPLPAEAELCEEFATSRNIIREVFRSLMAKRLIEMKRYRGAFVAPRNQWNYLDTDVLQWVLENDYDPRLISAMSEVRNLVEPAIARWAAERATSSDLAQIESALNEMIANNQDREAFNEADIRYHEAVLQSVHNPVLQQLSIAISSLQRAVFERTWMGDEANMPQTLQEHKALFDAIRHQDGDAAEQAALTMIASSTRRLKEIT

In data set [2] the target is T2, DgoR D146A D146A (Escherichia coli) (UniProt P31460).
T2 sequence: T1 sequence with D146A

The target of data set [3] is T3, DgoR D184A D184A (Escherichia coli) (UniProt P31460).
T3 sequence: T1 sequence with D184A

The target in data set [4] is T4, DgoR H150A H150A (Escherichia coli) (UniProt P31460).
T4 sequence: T1 sequence with H150A

For data set [5], the target named is T5, DgoR H195A H195A (Escherichia coli) (UniProt P31460).
T5 sequence: T1 sequence with H195A

In data set [6] the target is T6, DgoR Q173A Q173A (Escherichia coli) (UniProt P31460).
T6 sequence: T1 sequence with Q173A

The target in data set [7] is T7, DgoR R102A R102A (Escherichia coli) (UniProt P31460).
T7 sequence: T1 sequence with R102A

The target in data set [8] is T8, DgoR R179A R179A (Escherichia coli) (UniProt P31460).
T8 sequence: T1 sequence with R179A

Data set [9] deals with T9, DgoR R224A R224A (Escherichia coli) (UniProt P31460).
T9 sequence: T1 sequence with R224A

For data set [10], the target named is T10, DgoR R224E R224E (Escherichia coli) (UniProt P31460).
T10 sequence: T1 sequence with R224E

Data set [11] addresses T11, DgoR S221A S221A (Escherichia coli) (UniProt P31460).
T11 sequence: T1 sequence with S221A

Data set [12] addresses T12, DgoR T191A T191A (Escherichia coli) (UniProt P31460).
T12 sequence: T1 sequence with T191A

The target in data set [13] is T13, DgoR W181A W181A (Escherichia coli) (UniProt P31460).
T13 sequence: T1 sequence with W181A

Positions count from the first letter of the chain named.

With “TGTAAAACGACGGCCAGTGCATTGTTCTTTTTGTGATCTAAATTGTAGTACAACAATATAAGTTTGTACTACATTACACGCACGGCAAACGCGAACGTCATCACGCTGGTACTACAAAGTTGCCGCGTTATGCATCGATCGGGGTAAAGTAGAGAAGAACATACAGAGCACAAGGACTCTCCATGACTCTCAATAAAACCGATCGCATTGTC (double strand) [dgo cis-acting element (promoter region)]”, the binding result in data set [1] is reported as “binds”; in [2], “binds”; in data set [3], “binds more weakly”; in data set [4] it was “binds more weakly”; in data set [5] it was “binds more weakly”; in [6], “binds more weakly”. Besides, the binding entry in data set [7] is listed as “binds more weakly”; in data set [8], “binds”; in data set [9], “binds more weakly”; in data set [10] it was “binds more weakly”; in data set [11], “binds”; in data set [12], “binds more weakly”. Also, in [13], the binding entry is recorded as “binds”.

The values are drawn from PMC7674646, “Structural and Functional Analyses of the Transcription Repressor DgoR From Escherichia coli Reveal a Divalent Metal-Containing D-Galactonate Binding Pocket” (Frontiers in Microbiology, 2020).
